Laboratory results published in paper PMC9976899, “Identification of a novel 5-aminomethyl-2-thiouridine methyltransferase in tRNA modification” (Nucleic Acids Research, 2023).

Molecular target: the molecule itself
Assay: SEC; oligomeric state of saMnmM in solution examined by size exclusion chromatography; conditions not given

B1: Staphylococcus aureus MnmM (5-aminomethyl-2-thiouridine methyltransferase, formerly YtqB) (enzyme)
chain: MKLERILPFSKTLIKQHITPESIVVDATCGNGNDTLFLAEQVPEGHVYGFDIQDLALENTRDKVKDFNHVSLIKDGHENIEHHINDAHKGHIDAAIFNLGYLPKGDKSIVTKPDTTIQAINSLLSLMSIEGIIVLVIYHGHSEGQIEKHALLDYLSTLDQKHAQVLQYQFLNQRNHAPFICAIEKIS
notes: MnmM (YtqB) of Staphylococcus aureus, UniProt Q2FXG9; gene codon-optimized and synthesized; Truncated constructs are stated only for the plant orthologs; A C-terminal His-tag (pLATE31) is stated expressly only for the B. subtilis gene; also called saMnmM; saYtqB; source: E. coli BL21(DE3), purified (HisTrap HP, SEC Superdex 75)
For B1, the “stoichiometry N” value was 2.
